Experimental data published in patent US7306928B2, “Homogenous assay for enzymatic activity” (Pierce Biotechnology, Inc., priority 2002, dated 2007).

Columns and labels:
[1] = molecular target: PKA (protein kinase A) catalytic unit, Promega; assay: cell-based or functional assay
PP2A Phosphatase = PP2A Phosphatase (Homo sapiens, UniProt P67775); assay: Okadaic acid PP2A phosphatase inhibition, Fe(III) fluorescence quench assay; assay type: biochemical; details: PP2A 22 milli Units, 30 μM Lissamine Rhodamine phospho Kemptide, 60 minutes, 96-well; read-out: calculated IC50
Description: Okadaic Acid, another phosphatase inhibitor, solubilized in DMSO, was titrated in triplicate in phosphatase dilution buffer over 24 wells in white 96-well polystyrene COSTAR plate. […] The results are illustrated in FIG. 10.

Sequence of PP2A Phosphatase (P67775 whole entry): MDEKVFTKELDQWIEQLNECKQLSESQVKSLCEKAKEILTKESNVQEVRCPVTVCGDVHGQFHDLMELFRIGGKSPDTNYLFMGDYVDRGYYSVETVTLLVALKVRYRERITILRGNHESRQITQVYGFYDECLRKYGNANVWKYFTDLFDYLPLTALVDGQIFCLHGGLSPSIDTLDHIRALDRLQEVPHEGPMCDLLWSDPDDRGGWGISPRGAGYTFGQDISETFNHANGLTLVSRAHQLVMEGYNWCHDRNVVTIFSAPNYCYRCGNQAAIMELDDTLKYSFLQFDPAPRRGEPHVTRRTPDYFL

Compound | IC50 of inhibition of PKA kinase activity (phosphorylation of Lissamine Rhodamine-labeled Kemptide, Fe(III) fluorescence quench readout) [1] [nM] | IC50 (PP2A Phosphatase) [nM]
PKI, a known synthetic peptide inhibitor of PKA | 2.6 | 
C=C1[C@@H](O)[C@@H]2O[C@]3(CC[C@H](/C=C/[C@@H](C)[C@@H]4CC(C)=C[C@@]5(O[C@H](C[C@@](C)(O)C(=O)O)CC[C@H]5O)O4)O3)CC[C@H]2O[C@@H]1[C@@H](O)C[C@H](C)[C@H]1O[C@@]2(CCCCO2)CC[C@H]1C [Okadaic Acid] |  | 1.5
